From patent publication US12427210B2, “Compounds comprising a fibroblast activation protein ligand and use thereof” (priority 2019, dated 2025) come the findings set out here.

Experiment in all cases: radioligand displacement, compound at 10 µM
What all share (conditions): remark: other sources report otherwise
On the technique in general: Displacement assays read how much labelled ligand stays bound in the presence of the test substance.

One experiment addresses CB2 (h) (human), P34972.
Substrate in experiment [1]: N neuronal alpha 4beta 2 (h) (human), P43681
Another experiment addresses T1, M2 (h) (human), P08172.
T1 chain: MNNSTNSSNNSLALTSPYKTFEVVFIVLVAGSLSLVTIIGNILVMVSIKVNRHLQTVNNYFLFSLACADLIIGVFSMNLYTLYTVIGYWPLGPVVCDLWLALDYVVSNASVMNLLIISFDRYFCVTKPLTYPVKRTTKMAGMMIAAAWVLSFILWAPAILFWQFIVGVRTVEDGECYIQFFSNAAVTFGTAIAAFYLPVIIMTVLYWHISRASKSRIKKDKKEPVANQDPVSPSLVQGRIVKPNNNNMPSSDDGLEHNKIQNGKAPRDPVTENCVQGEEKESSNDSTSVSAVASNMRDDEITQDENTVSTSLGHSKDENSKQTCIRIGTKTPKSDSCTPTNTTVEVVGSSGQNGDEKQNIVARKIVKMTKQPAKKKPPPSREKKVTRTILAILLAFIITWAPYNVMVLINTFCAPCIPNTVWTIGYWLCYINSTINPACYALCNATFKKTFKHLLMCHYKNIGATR

In experiment [2] the target is beta 2 (h) (human), P07550.
Experiment [3] concerns the target 5-HT1B (h) (human), P28222.
The target of experiment [4] is 5-HT transporter (h) (human), P31645.
Experiment [5] deals with T2, delta (DOP) (h) (human), P41143.
T2 chain: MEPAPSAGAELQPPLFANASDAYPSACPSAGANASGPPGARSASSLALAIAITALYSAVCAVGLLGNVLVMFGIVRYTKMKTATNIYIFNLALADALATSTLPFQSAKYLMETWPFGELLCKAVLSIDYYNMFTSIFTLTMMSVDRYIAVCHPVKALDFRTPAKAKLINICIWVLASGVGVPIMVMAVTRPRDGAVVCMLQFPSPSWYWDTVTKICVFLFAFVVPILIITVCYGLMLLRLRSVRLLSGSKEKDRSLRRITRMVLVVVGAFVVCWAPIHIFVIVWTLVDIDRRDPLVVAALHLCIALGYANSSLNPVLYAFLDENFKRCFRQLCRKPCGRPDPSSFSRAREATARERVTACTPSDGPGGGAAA

A further experiment addresses T3, GR (h) (human), P04150.
T3 chain: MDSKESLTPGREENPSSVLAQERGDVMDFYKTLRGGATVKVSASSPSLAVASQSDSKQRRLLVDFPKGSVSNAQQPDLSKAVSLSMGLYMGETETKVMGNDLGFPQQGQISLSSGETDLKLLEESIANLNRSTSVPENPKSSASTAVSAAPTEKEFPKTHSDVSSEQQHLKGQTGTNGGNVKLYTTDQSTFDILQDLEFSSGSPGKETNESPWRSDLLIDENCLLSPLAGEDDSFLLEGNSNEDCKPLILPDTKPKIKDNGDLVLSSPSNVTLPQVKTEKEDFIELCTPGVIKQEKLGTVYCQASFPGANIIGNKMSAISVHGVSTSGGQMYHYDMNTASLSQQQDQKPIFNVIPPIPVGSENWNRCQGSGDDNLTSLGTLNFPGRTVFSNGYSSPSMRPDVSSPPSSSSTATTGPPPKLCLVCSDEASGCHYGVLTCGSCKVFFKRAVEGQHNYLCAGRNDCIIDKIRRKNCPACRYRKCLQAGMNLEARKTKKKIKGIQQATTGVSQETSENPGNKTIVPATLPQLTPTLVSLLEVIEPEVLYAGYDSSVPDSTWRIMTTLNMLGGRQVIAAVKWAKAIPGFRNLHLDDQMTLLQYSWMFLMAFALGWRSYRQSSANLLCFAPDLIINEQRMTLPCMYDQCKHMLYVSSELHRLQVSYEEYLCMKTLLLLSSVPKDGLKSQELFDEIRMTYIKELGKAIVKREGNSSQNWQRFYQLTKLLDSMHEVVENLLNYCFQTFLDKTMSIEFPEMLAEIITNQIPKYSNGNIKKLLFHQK

A further experiment has as its target V1a (h) (human), P37288.
A further experiment has as its target T4, CB1 (h) (human), P21554.
T4 chain: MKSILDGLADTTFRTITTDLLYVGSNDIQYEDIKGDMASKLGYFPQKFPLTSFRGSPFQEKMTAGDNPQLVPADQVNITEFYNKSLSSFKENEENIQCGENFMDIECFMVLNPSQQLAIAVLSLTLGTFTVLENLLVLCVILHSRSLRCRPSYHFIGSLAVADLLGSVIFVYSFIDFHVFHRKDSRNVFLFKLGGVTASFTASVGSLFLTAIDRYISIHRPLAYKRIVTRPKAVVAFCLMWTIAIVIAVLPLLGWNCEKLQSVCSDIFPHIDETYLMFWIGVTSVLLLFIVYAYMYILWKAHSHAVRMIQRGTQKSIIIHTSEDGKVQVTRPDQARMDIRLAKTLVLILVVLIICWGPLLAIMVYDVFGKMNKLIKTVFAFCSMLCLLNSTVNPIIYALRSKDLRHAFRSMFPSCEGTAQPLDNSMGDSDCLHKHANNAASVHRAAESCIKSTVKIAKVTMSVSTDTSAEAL

Chain of CB2 (h) (human), P34972 (P34972 whole entry): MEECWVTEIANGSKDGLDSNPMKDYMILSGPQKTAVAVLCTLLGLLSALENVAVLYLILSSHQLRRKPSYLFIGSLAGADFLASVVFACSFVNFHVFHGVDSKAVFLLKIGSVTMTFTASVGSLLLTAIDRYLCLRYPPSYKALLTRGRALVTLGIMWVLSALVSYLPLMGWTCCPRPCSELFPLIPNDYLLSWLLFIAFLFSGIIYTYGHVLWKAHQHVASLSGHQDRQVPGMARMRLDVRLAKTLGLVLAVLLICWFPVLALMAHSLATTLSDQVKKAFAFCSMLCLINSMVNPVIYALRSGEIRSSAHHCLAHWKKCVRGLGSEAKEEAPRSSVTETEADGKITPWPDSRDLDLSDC

B1: Hex-[Cys(tMeBn(DOTA-AET))-Pro-Pro-Thr-Gln-Phe-Cys]-OH (3BP-3554) (peptide)
peptide: CPPTQFC
modifications: here or on the partner: N-terminal hexanoyl (Hex); Cys1 and Cys7 cyclised through tMeBn carrying DOTA-AET; free C-terminal acid (-OH)
With B1, the % Inhibition of Specific Binding in the experiment with CB2 (h) (human), P34972 is -5%; in experiment [1] it was -2%; with M2 (h) (human), P08172, 7%; in experiment [2], 8%; in experiment [3], 8%; in [4], -8%. The % Inhibition of Specific Binding in [5] was 1%; in the experiment with GR (h) (human), P04150 it was 0%; in the experiment with V1a (h) (human), P37288, 1%; with CB1 (h) (human), P21554 it was -7%.

B2: Hex-[Cys(tMeBn(DOTA-PP))-Pro-Pro-Thr-Gln-Phe-Cys]-Asp-NH2 (3BP-3407) (peptide)
peptide: CPPTQFCD
modifications: here or on the partner: N-terminal hexanoyl (Hex); Cys1 and Cys7 cyclised through tMeBn carrying DOTA-PP; C-terminal amide
For B2, the % Inhibition of Specific Binding with CB2 (h) (human), P34972 was 2%; in experiment [1] it was -8%; with M2 (h) (human), P08172 it was -4%; in [2], 4%; in experiment [3], -11%; in [4], -3%. For the same molecule, the % Inhibition of Specific Binding in [5] is 0%; with GR (h) (human), P04150, -2%; with V1a (h) (human), P37288, 16%; with CB1 (h) (human), P21554, 5%.
